According to PMC1779432:

Target: Soluble HLA-DR4 (DRB1*0401) (human)

Substance	IL-4 secretion by pooled splenocytes and lymph node cells of CII-immunized DR4 transgenic mice (chimeric DR4 on the cells) cultured with 100 μg/ml peptide
CII(256-276)(F263N, E266A) analog peptide	66 pg/mL
CII(256-276)(F263N, E266D) analog peptide	48 pg/mL
